In patent US20220112292A1 (ALETA BIOTHERAPEUTICS, published 2022):

T1: CLL-1 on U937 cells (human, UniProt Q5QGZ9 1-265)
T1 construct: whole, on cells; also called CLEC12A; Clec12A
T1 sequence: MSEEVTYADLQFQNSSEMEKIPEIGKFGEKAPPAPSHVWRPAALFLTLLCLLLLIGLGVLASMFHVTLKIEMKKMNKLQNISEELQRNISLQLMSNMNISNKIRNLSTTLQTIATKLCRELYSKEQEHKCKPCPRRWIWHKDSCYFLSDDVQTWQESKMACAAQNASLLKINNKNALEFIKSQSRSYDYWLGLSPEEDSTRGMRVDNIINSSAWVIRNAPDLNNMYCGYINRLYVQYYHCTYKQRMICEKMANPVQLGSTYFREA

T2: Clec12A (ABclonal, RP01018) (human, UniProt Q5QGZ9-1 75-275, limits assumed)
T2 construct: Bought recombinant protein; also called ABclonal Clec12A; Clec12A from AbClonal
T2 sequence: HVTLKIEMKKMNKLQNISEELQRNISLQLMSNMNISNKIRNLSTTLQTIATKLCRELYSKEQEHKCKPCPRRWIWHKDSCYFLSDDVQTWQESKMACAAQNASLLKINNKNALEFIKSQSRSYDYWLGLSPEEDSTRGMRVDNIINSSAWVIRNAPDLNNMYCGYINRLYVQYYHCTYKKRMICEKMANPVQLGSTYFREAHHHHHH

T3: Clec12A-His (Sino Biological, 11896-H07H) (human, UniProt Q5QGZ9 65-265)
T3 construct: Bought soluble protein; also called soluble CLEC12a-His; Sino Biological Clec12A
T3 chain: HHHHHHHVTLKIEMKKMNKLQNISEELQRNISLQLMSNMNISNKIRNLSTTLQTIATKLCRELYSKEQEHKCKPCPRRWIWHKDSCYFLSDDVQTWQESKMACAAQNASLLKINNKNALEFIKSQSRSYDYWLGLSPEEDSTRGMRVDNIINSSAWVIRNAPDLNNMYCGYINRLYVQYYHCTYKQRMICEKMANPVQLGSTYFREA

B1: VHH clone 2H3 (VHH)
VHH: QVQLQESGGGLVQAGGSLRLSCVASGSIRSINVMGWYRQAPGKQRELVAACASDGNTYYADSVKGRFTISRDNAEKTVYLQMNNLKPDDTAVYYCDANSRGNYYSGQGTQVTVSS
notes: Includes myc and His tags; also called 2H3 VHH-Myc-His; VHH 2H3
B2: 1C6 (VHH)
VHH: QVQLQESGGALVQAGGSLRLSCAASGLTFSNYAMGWFRQAPGKEREFVAAINWSGGTTDYATSVKGRFTISRDNAKNTVYLQLNSLKPEDTAVYYCAASYRLRITVVVTPDEYHYWGQGTLVTVSS
notes: also called VHH clone 1C6
B3: VHH clone 2C2 (VHH)
VHH: QVQLQQSGGGLVQAGGSLTLSCAATGRTIDNGAMAWFRQAPGKQRELVAAINWSGGATFYTDSVKYRFTISRDNVRHTLDLQMTSLKPEDTTIYFCASRRGVDLRRNSYEYDYWGRGTLVTVSS
notes: Includes myc and His tags

How the values were obtained:
CLL-1 on U937 cells [1] = biological target: T1, CLL-1 on U937 cells; test: flow cytometry on U937 cells, 3x serial dilutions from 3 ug/ml, anti-His-PE
Protocol: (§1) U937 cell binding by VHH clones was assessed using varying doses to determine EC50s. Briefly, the method included: VHH clones (3 ug/ml as starting conc./test, with 3× serial dilutions) in FACS buffer were added to Fc blocked U937 or 293T-CLL1 cells (2.5×10\hat{ }5), the mixtures were incubated for 30 min at 4° C., then washed twice with FACS buffer by spinning at 500G for 2 min; anti-His-PE was added to cells, the mixture was incubated for 30 min at 4° C. and washed twice with FACS buffer by spinning at 500G for 2 min; 1% PFA (Paraformaldehyde) in PBS was added to cell pellet to fix the cells, followed by FACS analysis. VHH clones tested: 1B5: stock=1.6 mg/ml; 1H1: stock=1.9 mg/ml; 1G6: stock=1.1 mg/ml; 2F3: stock=1.45 mg/ml; 2F5: stock=0.5 mg/ml; 2H3: stock=2 mg/ml.

CLL-1 on U937 cells [2] = biological target: T1, CLL-1 on U937 cells; test: flow cytometry on U937 cells, clone lysate, anti-cMyc-PE (Table 3 summary)
[3] = biological target: T2, Clec12A (ABclonal, RP01018); test: ELISA: coated with clec12a, then 2H3, anti-myc, HRP-anti-mIgG; OD405
Protocol: (§2) The ability of VHH clones to recognize commercially available recombinant Clec12a proteins was tested by ELISA. […] The plate was blocked with 200 μl/well 0.3% non-fat milk in Tris buffered saline (TBS) for 1 hr at room temperature (RT). Then, the plates were washed 3× with wash buffer (1×TBST: 0.1 M Tris, 0.5 M NaCl, 0.05% Tween 20). Next, 100 μl of the 2H3 VHH-Myc-His (SEQ ID NO: 15, purified by ProSci), was added starting at 5 μg/ml with 3 fold dilutions, and incubated for 1 h at RT. The plate was washed 3× with wash buffer and 100 μl of 1 ug/ml anti-Myc antibody (NOVUS/Fisher, NBP2-37822) was added per well. The plate was incubated for 1 h at RT and then washed 3× with wash buffer. Following the wash step, 100 μl of a 1:2000 dilution of HRP-anti-mIgG (Jackson ImmunoResearch, 115-035-062) was added per well and incubated at RT in the dark for 1 hr. […] This experiment was repeated twice.

[4] = biological target: T3, Clec12A-His (Sino Biological, …); test: ELISA, upper graph (first experiment): coated with clec12a, then 2H3, anti-myc, HRP-anti-mIgG; OD405
Protocol: as §2

[5] = biological target: T3, Clec12A-His (Sino Biological, …); test: ELISA, lower graph (second experiment): coated with clec12a, then 2H3, anti-myc, HRP-anti-mIgG; OD405
Protocol: as §2

CLL-1 on U937 cells [6] = biological target: T1, CLL-1 on U937 cells; test: flow cytometry on U937 cells, % binding against ng/ml, detected with a-His-PE; EC50 of the fitted curve
Protocol: as §1

CLL-1 on U937 cells [7] = biological target: T1, CLL-1 on U937 cells; test: flow cytometry on U937 cells, VHH in 3-fold dilutions, detected with a-His-PE; percent of cells positive
Protocol: as §1

CLL-1 on U937 cells [8] = biological target: T1, CLL-1 on U937 cells; test: flow cytometry on U937 cells, VHH at 3 ug/ml, detected with a-His-PE; a-His-PE alone 1.1% and 5,576.5, unstained 0.6% and 5,793.5
Protocol: U937 cell binding by VHH clones was assessed. Briefly, the method included: U937 cells (2.5×10\hat{ }5) were Fc blocked (human Fc block, BD Cat. #BDB564220) for 10 min at room temperature, then washed once with FACS buffer (PBS+1% BSA+0.1% Sodium Azide) by spinning at 500G for 2 min; VHH clones (3 μg/ml as final conc) in FACS buffer were added to the cell pellets and incubated for 30 min at 4° C., then washed twice with FACS buffer by spinning at 500G for 2 min; anti-His-PE (R&D Systems, Cat. #IC050P) was added to cells; the mixture was incubated for 30 min at 4° C. and washed twice with FACS buffer by spinning at 500G for 2 min; 1% PFA (Paraformaldehyde) in PBS was added to cell pellet to fix the cells, followed by FACS analysis. VHH clones tested: 1B5: stock=1.6 mg/ml; 1H1: stock=1.9 mg/ml; 1G6: stock=1.1 mg/ml; 2F3: stock=1.45 mg/ml; 2F5: stock=0.5 mg/ml; 2H3: stock=2 mg/ml. As shown in FIGS. 2A-2C, binding of clones 1H1, 1G6, 2F5 and 2H3 to U937 cells was detected with anti-His-PE; very little binding of clones 1B5 and 2F3 to U937 cells could be detected by anti-His-PE.

CLL-1 on U937 cells [9] = biological target: T1, CLL-1 on U937 cells; test: flow cytometry on U937 cells, a-cMyc then a-msIgG-PE
Protocol: (§3) Additional VHH clones were assessed for binding to U937. […] Clones tested: 1A10: stock=0.9 mg/ml; 1B1: stock=0.9 mg/ml; […]: stock=1.5 mg/ml; 2C8: stock=0.9 mg/ml; 1D2: stock=0.06 mg/ml. Previous clone as control 2F5: stock=0.5 mg/ml.

CLL-1 on U937 cells [10] = biological target: T1, CLL-1 on U937 cells; test: flow cytometry on U937 cells, clone at 3ug/ml, a-Myc then a-mIgG-PE; no clone 0.6% and 64,740.2, unstained 0.0% and 4,885.0
Protocol: as §3

[11] = biological target: T3, Clec12A-His (Sino Biological, …); test: competition ELISA on coated CLEC12a-His, biotinylated VHH against unlabelled VHH
Protocol: ELISAs were used to determine if the VHH clones recognized distinct or similar epitopes. […] The plate was blocked with 0.3% nonfat milk in TBS (200 ul/well) for 1 hr at RT. The plates were washed 3× with 1×TBST (0.1 M Tris, 0.5 M NaCl and 0.05% Tween-20). The test anti-CLEC12a VHHs were added at 10 ug/ml horizontally across the plate, 100 ul per well and incubated for 1 h. Without washing, the test anti-CLEC12a biotinylated VHHs were added at 0.2 ug/ml vertically down the plate, 100 ul per well and incubate for 1 h. After being washed 3× with 1×TBST, HRP-conjugated streptavidin (Pierce #21130) at 1:2000 (100 ul/well) was added, followed by incubation at RT in the dark for 1 hr. For detection, 1-Step Ultra TMB-ELISA reagent (Thermo Fisher #34028) was added at 100 ul per well and read at 450 nm. […] The 1H1 VHH was distinct from these, and 2C2 was intermediate. Results are depicted in FIGS. 7A-7D.

Binder	EC50 (CLL-1 on U937 cells [1]) [nM]	% FACS positive (CLL-1 on U937 cells [2]) [%]	binding result [3]	EC50 [4] [µg/mL]	EC50 [5] [µg/mL]	EC50 (CLL-1 on U937 cells [6]) [µg/mL]	% binding at 1.4 ng/ml (CLL-1 on U937 cells [7]) [%]	% binding at 4.1 ng/ml (CLL-1 on U937 cells [7]) [%]	% binding at 12.3 ng/ml (CLL-1 on U937 cells [7]) [%]	% binding at 37.0 ng/ml (CLL-1 on U937 cells [7]) [%]	% binding at 111.1 ng/ml (CLL-1 on U937 cells [7]) [%]	% binding at 333.3 ng/ml (CLL-1 on U937 cells [7]) [%]	% binding at 1000 ng/ml (CLL-1 on U937 cells [7]) [%]	% binding at 3000 ng/ml (CLL-1 on U937 cells [7]) [%]	% of This Plot (R3 PE+) (CLL-1 on U937 cells [8]) [%]	Mean FL2-A (R3 gate) (CLL-1 on U937 cells [8])	binding result (CLL-1 on U937 cells [9])	% of This Plot (R3) (CLL-1 on U937 cells [10]) [%]	Mean FL2-A (R3 gate) (CLL-1 on U937 cells [10])	binding result [11]
B1	0.35	94.3	no binding (tested: about 5000 ng/ml)	0.0661	0.0625	0.00547	6.2	33.5	70.5	89	89.4	89.9	90.3	88.7	93.8	8130	–	–	–	–
B2	–	–	–	–	–	–	–	–	–	–	–	–	–	–	–	–	no binding (tested: 3ug/ml)	6	12300	–
B3	–	77.2	–	–	–	–	–	–	–	–	–	–	–	–	–	–	–	–	–	binds
